According to PMC314469, “Protein Interaction Networks by Proteome Peptide Scanning” (PLoS Biology, 2004):

T1: Abp1 SH3 (ABP1_YEAST), P15891
T1 chain: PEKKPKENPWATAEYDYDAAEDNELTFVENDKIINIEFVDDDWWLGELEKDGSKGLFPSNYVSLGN

B1: YPL141C 761-773 (peptide)
chain: SKRKPSPPSQRRP
B2: YPR025C 204-217 (peptide)
chain: SLKFSLLNHHPYKP
B3: YLR335W 355-367 (peptide)
chain: SIPSKNTPDASKP
B4: YPR181C 246-258 (peptide)
chain: SPDQWSVPAGHRP
B5: YHR099W 1329-1341 (peptide)
chain: SKQFLLSPIFAKP
B6: YOR341W 710-722 (peptide)
chain: SKIVTLPPTIFKP
B7: YER005W 601-613 (peptide)
chain: SQSANLAPSNLRP
B8: YPL137C 250-262 (peptide)
chain: SPMRGVAPTASKP
B9: YAL019W 19-32 (peptide)
chain: SSPTKVASSSPLKP
B10: YER116C 142-154 (peptide)
chain: SPMLDAAPPTTKP
B11: YBR102C 22-35 (peptide)
chain: SPAKQKTPPSPAKP
B12: YPL202C 310-323 (peptide)
chain: SSSSSILPSTPTRP
B13: YER040W 495-507 (peptide)
chain: SSSRSVVPILPKP
B14: YJL076W 1069-1081 (peptide)
chain: SSILHDLPRKVRP
B15: YOR266W 165-178 (peptide)
chain: SLPTSSSAKAPLRP
B16: YJL036W 11-24 (peptide)
chain: SKAKDKARGNPEKP
B17: YLR047C 278-291 (peptide)
chain: SLLEFPLTDLPKKP
B18: YDR178W 31-44 (peptide)
chain: SLTIPFLPVLPQKP
B19: YLR144C 4-16 (peptide)
chain: SRQAIPPPVPNRP
B20: YNL298W 398-411 (peptide)
chain: SPSPSPSPLNPYRP
B21: YJR035W 262-274 (peptide)
chain: SQRSSDLPEWRRP
B22: YGL114W 7-19 (peptide)
chain: SQEVQRVPWDNKP
B23: YPR008W 490-502 (peptide)
chain: SNYITDRPFTRKP
B24: YDR273W 125-138 (peptide)
chain: SPEENTDFALPMKP
B25: YIL056W 426-439 (peptide)
chain: SNRATLLTTLPMKP
B26: YOR329C 434-447 (peptide)
chain: SNGAIQTGLQPLKP
B27: YHR208W 26-39 (peptide)
chain: SKLKITRNPNPSKP
B28: YGL201C 3-15 (peptide)
chain: SPFPADTPSSNRP
B29: YHR209W 240-253 (peptide)
chain: SIYTSWARDNPSKP
B30: YGR154C 61-73 (peptide)
chain: SKGARFLPAPHRP
B31: YNL014W 670-682 (peptide)
chain: SNMTFQYPGTTKP
B32: YNL230C 233-245 (peptide)
chain: SSSPKKGPLSIKP
B33: YDR538W 41-54 (peptide)
chain: SKEVTRASTSPPRP
B34: YER118C 2-14 (peptide)
chain: SISSKIRPTPRKP
B35: YCR025C 79-91 (peptide)
chain: SLHWTGIPFLGKP
B36: YAL047C 42-55 (peptide)
chain: SMTTRSSHNDPIKP
B37: YDR158W 154-167 (peptide)
chain: SNSSTAGLVAPLKP
B38: YMR280C 1387-1400 (peptide)
chain: SSGPSASHRGPRRP
B39: YNL307C 267-279 (peptide)
chain: SNPAYDGPLFSKP
B40: YGL092W 308-320 (peptide)
chain: SPNEIFSPSYSKP
B41: YER131W 88-101 (peptide)
chain: SREDRKNRAPPQRP
B42: YOR023C 198-210 (peptide)
chain: SNGLLLEPSALRP
B43: YJL041W 617-629 (peptide)
chain: SLKLNSKPVELKP
B44: YDR451C 284-297 (peptide)
chain: SSIFEDHHITPSKP
B45: YJR138W 1326-1339 (peptide)
chain: SNASVADAKEPSRP
B46: YKL077W 80-92 (peptide)
chain: SLEHDGRPKTIKP
B47: YKL015W 850-862 (peptide)
chain: SNIVSILPEGAKP
B48: YBL054W 173-185 (peptide)
chain: SSAIEDSPPDFKP
B49: YOR290C 408-421 (peptide)
chain: SNKTHTEQNNPPKP
B50: YPR117W 1308-1321 (peptide)
chain: SKAGDEERFLPNRP
B51: YBL058W 387-400 (peptide)
chain: SRNFTLNYAFPIKP
B52: YKR089C 884-896 (peptide)
chain: SQATKSSPFRSRP
B53: YJL147C 308-321 (peptide)
chain: SIQSKIMLESPKKP
B54: YLR155C 216-229 (peptide)
chain: SNDDVEFYYPPVKP
B55: YDL180W 227-240 (peptide)
chain: SNNVYSSEYHPIKP
B56: YDR419W 378-390 (peptide)
chain: SRGRYGLPLSSRP
B57: YLR079W 24-37 (peptide)
chain: SSALMQGQKTPQKP
B58: YNL152W 392-404 (peptide)
chain: SRKNSMSPTRKRP

Target: T1, Abp1 SH3 (ABP1_YEAST), P15891
Experiment: SPOT array

Row | normalised SPOT signal, Boehringer light units (BLU); mean over the file's lines of this peptide | Binder
1 | 6670 | B1
2 | 186 | B2
3 | 64.2 | B3
4 | 65.3 | B4
5 | 169 | B5
6 | 159 | B6
7 | 95.4 | B7
8 | 2700 | B8
9 | 104 | B9
10 | 158 | B10
11 | 54.6 | B11
12 | 70.9 | B12
13 | 329 | B13
14 | 786 | B14
15 | 37.9 | B15
16 | 124 | B16
17 | 118 | B17
18 | 129 | B18
19 | 2950 | B19
20 | 21.8 | B20

Row | normalised SPOT signal, Boehringer light units (BLU); mean over the file's lines of this peptide | Binder
21 | 377 | B21
22 | 86.2 | B22
23 | 409 | B23
24 | 98.8 | B24
25 | 243 | B25
26 | 70.4 | B26
27 | 115 | B27
28 | 114 | B28
29 | 178 | B29
30 | 1020 | B30
31 | 144 | B31
32 | 347 | B32
33 | 226 | B33
34 | 15700 | B34
35 | 116 | B35
36 | 205 | B36
37 | 61.1 | B37
38 | 390 | B38
39 | 95.6 | B39
40 | 66.1 | B40

Row | normalised SPOT signal, Boehringer light units (BLU); mean over the file's lines of this peptide | Binder
41 | 109 | B41
42 | 0 | B42
43 | 27.9 | B43
44 | 0 | B44
45 | 46 | B45
46 | 56.6 | B46
47 | 106 | B47
48 | 85.8 | B48
49 | 83.8 | B49
50 | 144 | B50
51 | 80.1 | B51
52 | 1250 | B52
53 | 289 | B53
54 | 92.8 | B54
55 | 12.1 | B55
56 | 327 | B56
57 | 335 | B57
58 | 209 | B58
